Data on 14 substances can be found in patent US20240368668A1, “SUBSTRATES AND BIOMARKERS OF ADAMTS7” (The Broad Institute, Inc., priority 2021, published 2024).

For the assay, the target named is T1, mouse ADAMTS7 (Mus musculus, UniProt Q68SA9, E373Q).
T1 construct: Full-length mouse Adamts7 1-1857 (Uniprot Q68SA9, WT or E373Q catalytic mutant); expressed in transfected cells; host or cells: Human Coronary Artery Smooth Muscle Cells (HCA-SMC, Lonza), adenovirus 50 MOI
T1 sequence (Q68SA9 221-1657 E373Q): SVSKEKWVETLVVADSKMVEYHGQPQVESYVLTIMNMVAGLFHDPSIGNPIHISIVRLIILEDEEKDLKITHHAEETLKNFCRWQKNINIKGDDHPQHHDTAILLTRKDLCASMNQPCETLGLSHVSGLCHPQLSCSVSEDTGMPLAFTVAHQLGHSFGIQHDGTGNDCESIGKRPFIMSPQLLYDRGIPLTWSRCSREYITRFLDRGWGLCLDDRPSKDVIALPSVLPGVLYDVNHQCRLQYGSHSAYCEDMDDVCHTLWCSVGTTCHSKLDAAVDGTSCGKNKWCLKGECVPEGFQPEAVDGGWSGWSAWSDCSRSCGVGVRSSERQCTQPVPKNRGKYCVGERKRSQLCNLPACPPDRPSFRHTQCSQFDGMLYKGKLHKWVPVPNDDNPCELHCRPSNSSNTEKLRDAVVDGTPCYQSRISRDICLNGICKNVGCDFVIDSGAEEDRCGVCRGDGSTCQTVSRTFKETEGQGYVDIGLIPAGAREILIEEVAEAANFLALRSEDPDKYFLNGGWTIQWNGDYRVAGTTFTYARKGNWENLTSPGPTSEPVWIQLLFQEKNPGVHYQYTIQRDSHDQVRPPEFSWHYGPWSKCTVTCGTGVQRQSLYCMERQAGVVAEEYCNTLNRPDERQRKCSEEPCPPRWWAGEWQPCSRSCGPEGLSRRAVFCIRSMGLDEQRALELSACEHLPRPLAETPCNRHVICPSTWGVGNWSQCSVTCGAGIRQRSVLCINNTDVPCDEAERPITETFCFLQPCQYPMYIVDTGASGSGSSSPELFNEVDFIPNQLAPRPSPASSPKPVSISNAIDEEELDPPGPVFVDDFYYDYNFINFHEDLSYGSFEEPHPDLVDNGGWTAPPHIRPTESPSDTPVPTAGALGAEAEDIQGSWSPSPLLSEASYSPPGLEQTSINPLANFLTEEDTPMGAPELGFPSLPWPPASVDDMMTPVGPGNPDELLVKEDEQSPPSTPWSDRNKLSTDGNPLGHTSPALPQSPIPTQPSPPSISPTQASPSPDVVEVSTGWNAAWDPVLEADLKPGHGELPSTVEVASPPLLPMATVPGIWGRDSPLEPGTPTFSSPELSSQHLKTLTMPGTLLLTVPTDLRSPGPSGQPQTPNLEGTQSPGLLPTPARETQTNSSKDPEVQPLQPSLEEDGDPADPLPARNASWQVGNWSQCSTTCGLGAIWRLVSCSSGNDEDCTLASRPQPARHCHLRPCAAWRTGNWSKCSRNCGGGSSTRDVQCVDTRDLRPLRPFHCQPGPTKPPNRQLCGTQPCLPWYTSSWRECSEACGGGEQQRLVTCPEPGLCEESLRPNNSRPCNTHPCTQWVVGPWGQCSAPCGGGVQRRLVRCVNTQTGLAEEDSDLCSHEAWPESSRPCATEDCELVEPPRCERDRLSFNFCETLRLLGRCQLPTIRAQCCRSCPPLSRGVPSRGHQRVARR
The assay is described as follows: TMT10 TAILS N-terminomics, HUVEC experiment (process replicates, trypsin/AspN digest). The note with it: HUVEC TAILS HC; log fold change of N-terminal peptide, Ad-mADAMTS7 EQ over Luc. It is filed as cell-based, human. From the text:
ADAMTS7 Expression, Cell Culture and Preparation of the Secreted Proteins—Full-length mouse Adamts7 1-1857 (Uniprot Q68SA9, WT or E373Q catalytic mutant) with a carboxyl terminal 3xFLAG tag was used to generate custom adenoviruses as previously described. Adeno-CMV-Luciferase (Ad-Luc) from Vector Biolabs was used as a negative control. Human Coronary Artery Smooth Muscle Cells (HCA-SMC) were obtained from Lonza and expanded in Lonza SmGM-2 media in 15 cm tissue culture plates. Twenty-four hours before media collection, near confluent plates were transduced with 50 MOI adenovirus and switched to Lonza Basal SM media with volumes of 20 ml per 15 cm plate. Expression of the Flag tagged ADAMTS7 was confirmed from the media using western blot and detected using the anti-Flag M2-HRP antibody (Sigma, A8592). Collected media was processed by adding protease inhibitors (1 mM EDTA and 1 mM PMSF) and clarified by 500 g×5 min spin at 4 C to pellet cell debris. Cell media supernatants were then passed through a 0.22 um filter and kept chilled. Processed media was then concentrated 50-100× using 3 kDa Centricon Plus-70 filter unit, spun at 3,500 g×60 min at 4 C. Approximately 10% of the processed, concentrated media was set aside for total secretome proteolytic analysis. The remaining 90% of the processed, concentrated media was buffer exchanged into 50 mM HEPES pH 8.0, 150 mM NaCl (2×50 ml) using the 3 kDa Centricon Plus-70 filter unit and concentrated to >2 mg/ml to serve as input for the TAILS experiment. Secretome and TAILS input samples were stored at −80° C.
For the first experiment, referred to as SMC1, 120 ml of media from 6×15 cm dishes was pooled from each condition (Luc, WT, EQ) and processed to produce three separate inputs for the TAILS experiment. Luc, WT and EQ inputs from the SMC1 experiment were each divided into triplicate 400 ug samples to generate technical replicate TAILS data. For the second experiment, referred to as SMC2, media was processed separately in triplicate for each condition (Luc1, Luc2, Luc3, WT1, WT2, WT3, EQ1, EQ2, EQ3) using 60 ml of media from 3×15 cm dishes for each process replicate. Inputs from the SMC2 experiment used process replicates of 300 ug each to generate TAILS data. The third experiment used input from cultured Human umbilical vein endothelial cells (HUVEC) from Lifeline Cell Technology grown in VascuLife Media and transduced in Lifeline Basal EC (+bFGF2 10 ng/ml). The HUVEC experiment used the same strategy as the SMC2 experiment, with 40 ml of media from 2×15 cm dishes for each process replicate and used 200 ug each to generate TAILS data. Inputs for process replicate experiments were restricted to the lowest concentration from the 9 parallel samples for SMC2 or HUVEC.
TMT10 isotopic labeling and negative selection of non-labeled peptides-Sample preparation was performed based on the TAILS protocol from the Overall lab with some modifications. From a single experiment, nine parallel protein samples in 50 mM HEPES pH 8.0, 150 mM NaCl were separately denatured with guanidinium chloride (Sigma, G4505) to reach a final concentration of 2.5M guanidinium chloride and 250 mM HEPES and incubated at 65° C. for 15 min. Reduction was achieved through addition of tris(2-carboxylethyl) phosphine (TCEP) at a final concentration of […] and incubated at 65° C. for 45 min. Alkylation reaction was performed with addition of iodoacetamide (IAA, Sigma, A3221) to a final concentration of 10 mM IAA for 15 min at room temperature in the dark. Following denaturation, reduction and alkylation steps, ten percent of each of the nine parallel protein samples was removed and combined to serve as a pooled reference. Isobaric tags were added to free amine groups using the TMT10plex Isobaric Mass Tagging Kit (ThermoFisher, 90113) with TMT channels randomly assigned to the nine samples and TMT 131 assigned to the pooled reference. […]
In the case of “AEBP1_37 (FLEGFLSELEPEPR; listed as Homo sapiens)”, the logFC.mEQ.over.Luc was −0.58.

On to “EFEMP1_124 (AVAGPEMQTGR; listed as Homo sapiens)”, for which the logFC.mEQ.over.Luc is −0.38.

The substance “FBN1_29 (LEAGNVKETR; listed as Homo sapiens)” showed a logFC.mEQ.over.Luc of −0.34.

As for “FLNA_1285 (LTQTGGPHVKAR; listed as Homo sapiens)”, the logFC.mEQ.over.Luc is given as −0.52.

“FN1_36 (MVQPQSPVAVSQSKPGCYDNGKHYQINQQWER; listed as Homo sapiens)” gave a logFC.mEQ.over.Luc of −0.47.

On to “FN1_40 (QSPVAVSQSKPGCYDNGKHYQINQQWER; listed as Homo sapiens)”, for which the logFC.mEQ.over.Luc was −0.50.

Take “FN1_886 (NQESTPVVIQQETTGTPR; listed as Homo sapiens)”: the logFC.mEQ.over.Luc was −0.43.

As to “FN1_1143 (LTPGVEYVYTIQVLR; listed as Homo sapiens)”, the logFC.mEQ.over.Luc is −0.24.

Substance “FN1_1656 (SSSPVTGYR; listed as Homo sapiens)” came in with a logFC.mEQ.over.Luc of −0.08.

As for “HSPG2_2331 (ANLAYPAGSTQPIR; listed as Homo sapiens)”, the logFC.mEQ.over.Luc is −0.01.

“IGFBP7_101 (AAGGPGVSGVCVCKSR; listed as Homo sapiens)” displayed a logFC.mEQ.over.Luc of −0.04.

“LOXL2_37 (FQQPAPEYHQPQAPANVAKIQLR; listed as Homo sapiens)” came in with a logFC.mEQ.over.Luc of −0.65.

In turn, “LOX_124 (WFQAGYSTSR; listed as Homo sapiens)” came in with a logFC.mEQ.over.Luc of 0.03.

“LTBP1_393 (LTATNFR; listed as Homo sapiens)”: the logFC.mEQ.over.Luc is listed as −0.18.
